The results in this text go back to PMC4768256, “Using mutagenesis to explore conserved residues in the RNA-binding groove of influenza A virus nucleoprotein for antiviral drug development” (Scientific Reports, 2016).

Read-outs that look alike come from different tables or passages of the source.

Data set [1] addresses NP WT (Influenza A virus A/TW/12/2001 (H1N1)) (UniProt Q07FI1). The experiment in a line: SPR.
Data set [2] shares this target. The data set is described as follows: SPR. This is another data set of the same source. (In general: Surface plasmon resonance follows binding to a sensor surface in real time, without labels.)

Sequence of NP WT (Influenza A virus A/TW/12/2001 (H1N1)) (Q07FI1 whole entry): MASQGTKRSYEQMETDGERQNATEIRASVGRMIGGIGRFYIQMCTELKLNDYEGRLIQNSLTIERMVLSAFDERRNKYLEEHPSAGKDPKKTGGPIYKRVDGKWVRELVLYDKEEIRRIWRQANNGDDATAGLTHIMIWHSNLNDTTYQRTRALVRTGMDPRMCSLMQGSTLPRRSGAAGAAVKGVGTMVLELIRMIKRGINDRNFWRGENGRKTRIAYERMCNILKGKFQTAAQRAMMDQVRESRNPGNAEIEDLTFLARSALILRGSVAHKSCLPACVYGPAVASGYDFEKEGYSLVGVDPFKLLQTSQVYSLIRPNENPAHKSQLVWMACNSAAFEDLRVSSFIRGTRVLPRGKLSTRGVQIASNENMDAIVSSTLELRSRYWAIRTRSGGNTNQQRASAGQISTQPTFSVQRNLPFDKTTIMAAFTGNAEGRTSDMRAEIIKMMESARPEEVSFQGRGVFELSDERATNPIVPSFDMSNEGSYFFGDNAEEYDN

Take “UCCAAACUCCAAACUCCAAACUCCAAAC [(UCCAAAC)4 RNA]”: the results for the Kd in data set [1] and in data set [2] were 8.27 nM and 10.4 nM, respectively.
